Here are results for 1 molecule from PMC13503762 (Nature Communications, 2026).

The target in this experiment is SARS-CoV-2 M protein (purified, in LMNG/CHS detergent) (SARS-CoV-2, UniProt P0DTC5). Put plainly: cryo-EM structure. To be noted: both partners purified.

B1: short conformation Fab (scFab) (Fab, V domains shown)
VH: EVQLQQSGPELVKPGASMKISCKTSGYSFTGYTMNWVKQSHGKNLEWIGLINPYNGDTSYNQKFKGKATLTVDKSSSTAYMELLSLTSEDSAVYYCEVINTYWGQGTLVTVSA
VL: DIVMTQSPASLAVSLGQRATISCKASQSIDYDGDNYMNWYQQKPGQPPKLLIYTTSNLESGIPARFSGSGSGTDFTLNIHPVEEGDAATYYCQQNNEDPYTFGGGTKLEIK
notes: also called short conformation-selective Fab; Fab targeting M_(short)
For the molecule B1, the binding result is “binds”.
